Target: human PD-L1 expressed on CHO-K1 cells (human) (UniProt Q9NZQ7)
Test: FACS binding to CHO-K1 cells stably expressing human PD-L1, FITC anti-human IgG secondary, Geo.Mean fluorescence vs log(nM) antibody

human PD-L1 expressed on CHO-K1 cells (human), sequence (Q9NZQ7 19-290): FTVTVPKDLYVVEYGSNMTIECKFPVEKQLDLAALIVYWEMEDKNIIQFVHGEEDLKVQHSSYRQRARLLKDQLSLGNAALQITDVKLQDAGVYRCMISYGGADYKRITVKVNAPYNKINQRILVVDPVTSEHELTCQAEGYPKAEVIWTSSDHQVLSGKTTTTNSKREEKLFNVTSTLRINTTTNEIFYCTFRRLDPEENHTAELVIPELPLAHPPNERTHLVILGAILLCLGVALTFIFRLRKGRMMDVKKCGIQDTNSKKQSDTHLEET

EC50 (read off the curve): 20 nM
Substance: Tecentriq® (antibody)

From US20210221891A1
